Measurements taken from article PMC5636754, “Structural and biochemical characterization of DAXX-ATRX interaction” (Protein & Cell, 2017).

B1: ATRX_(1,265–1,285), α-helix frame only (αDID), wild type peptide [human] / DAXX helical bundle (DHB) domain of death domain-associated protein (DAXX), aa 55-144 [not stated] (parent complex)
chain 1: NDPENRIAKKMLLEEIKANLS
chain 2: GKKCYKLENEKLFEEFLELCKMQTADHPEVVPFLYNRQQRAHSLFLASAEFCNILSRVLSRARSRPAKLYVYINELCTVLKAHSAKKKLN

Variants of: B1
Assay: ITC

Variant | Kd [µM]
chain 1 NDPQNRIAKKMLLEEIKANLS | 5.6
chain 1 NNPENRIAKKMLLEEIKANLS | 7
chain 1 NDPENRIAKKMLLEQIKANLS | 3.2
chain 1 NDPENRIAAKMLLEEIKANLS | 2.3
